Test results published in US20240358847A1 (Merck Sharp & Dohme, published 2024).
Residue numbers refer to the chain shown, from its start. Names may count otherwise. One block for each binder: values may come before it.

What was measured:
[1] = biological target: T1, TROP2 on BxPC-3 and MDA-MB-231-KWL cells (human, UniProt P09758 27-323); assay: on-cell ELISA, BxPC-3 vs MDA-MB-231-KWL cells
T1 construct: whole, on cells
T1 sequence (looked up): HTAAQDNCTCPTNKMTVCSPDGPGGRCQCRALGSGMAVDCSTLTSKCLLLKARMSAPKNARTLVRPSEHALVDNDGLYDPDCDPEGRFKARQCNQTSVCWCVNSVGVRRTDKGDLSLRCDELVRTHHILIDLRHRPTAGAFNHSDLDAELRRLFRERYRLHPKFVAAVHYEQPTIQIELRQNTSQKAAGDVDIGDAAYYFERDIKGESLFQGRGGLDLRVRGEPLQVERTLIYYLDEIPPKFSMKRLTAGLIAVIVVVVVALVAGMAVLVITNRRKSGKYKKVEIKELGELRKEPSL
Experimental: (§1) Cells were plated in duplicate onto 96-well plates, and primary antibody was diluted in cell culture medium with a starting concentration of 30 μg/mL (200 nM) with a dilution factor of 1:5. […] Data was plotted and analyzed. EC50 ([…]) was measured along with area under the curve (AUC) for each cell line.

[2] = biological target: T1, TROP2 on BxPC-3 and MDA-MB-231-KWL cells; assay: on-cell ELISA, BxPC-3 cells (TROP2 high); design: unit not given beside the values
Experimental: as §1

[3] = biological target: T1, TROP2 on BxPC-3 and MDA-MB-231-KWL cells; assay: on-cell ELISA, MDA-MB-231-KWL cells (TROP2 low); design: unit not given beside the values
Experimental: as §1

Human Trop2 [4] = biological target: T2, Human Trop2 (human, UniProt P09758 27-274, limits assumed); assay: SPR, TROP2 capture, pH 7.4, bivalent mode; KDapp
T2 construct: also called TROP2 protein; trophoblast cell-surface antigen 2
T2 sequence (looked up): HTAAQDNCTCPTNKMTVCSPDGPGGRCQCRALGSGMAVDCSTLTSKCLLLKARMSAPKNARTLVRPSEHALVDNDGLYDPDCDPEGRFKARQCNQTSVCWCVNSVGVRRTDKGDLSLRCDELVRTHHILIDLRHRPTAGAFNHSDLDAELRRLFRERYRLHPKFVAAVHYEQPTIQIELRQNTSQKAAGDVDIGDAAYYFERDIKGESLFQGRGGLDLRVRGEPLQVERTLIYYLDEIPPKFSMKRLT

Human Trop2 [5] = biological target: T2, Human Trop2; assay: SPR, TROP2 capture, pH 7.4, monovalent mode; KDapp
Human Trop2 [6] = biological target: T2, Human Trop2; assay: SPR, binding to target

B1: mAb_LC_Hm_G33P (antibody, human IgG1, kappa)
heavy: not shown
light: DIQLTQSPSSLSASVGDRVSITCKASQDVSIAVAWYQQKPGKAPKLLIYSASYRYTGVPDRFSGSGSGTDFTLTISSLQPEDFAVYYCQQHYITPLTFGAGTKVEIKRTVAAPSVFIFPPSDEQLKSGTASVVCLLNNFYPREAKVQWKVDNALQSGNSQESVTEQDSKDSTYSLSSTLTLSKADYEKHKVYACEVTHQGLSSPVTKSFNRGEC
ΔAUC [1]: 134
AUC (BxPC-3) [2]: 142
AUC (MDA-MB-231-KWL) [3]: 7.7

B2: mAb_Lm_Q89V_HC (antibody, human IgG1, kappa)
heavy: not shown
light: B1 light with Q89V
ΔAUC [1]: 98.1
AUC (BxPC-3) [2]: 299
AUC (MDA-MB-231-KWL) [3]: 201

B4: mAb_LC_Hm_W106A (antibody, human IgG1, kappa)
heavy: not shown
light: B1 light
ΔAUC [1]: 186
AUC (BxPC-3) [2]: 215
AUC (MDA-MB-231-KWL) [3]: 28.7

B5: mAb_LC_Hm_W106E (antibody, human IgG1, kappa)
heavy: not shown
light: B1 light
ΔAUC [1]: 117
AUC (BxPC-3) [2]: 140
AUC (MDA-MB-231-KWL) [3]: 22.2

B8: mAb_Lm_S30R_HC (antibody, human IgG1, kappa)
heavy: not shown
light: B1 light with S30R
ΔAUC [1]: 169
AUC (BxPC-3) [2]: 216
AUC (MDA-MB-231-KWL) [3]: 47.1

B9: mAb_Lm_D28H_HC (antibody, human IgG1, kappa)
heavy: not shown
light: B1 light with D28H
ΔAUC [1]: 86.6
AUC (BxPC-3) [2]: 300
AUC (MDA-MB-231-KWL) [3]: 214

B10: mAb_Lm_A32Q_HC (antibody, human IgG1, kappa)
heavy: not shown
light: B1 light with A32Q
ΔAUC [1]: 124
AUC (BxPC-3) [2]: 142
AUC (MDA-MB-231-KWL) [3]: 17.8

B11: mAb_LC_Hm_Y107N (antibody, human IgG1, kappa)
heavy: not shown
light: B1 light
ΔAUC [1]: 86.5
AUC (BxPC-3) [2]: 317
AUC (MDA-MB-231-KWL) [3]: 230

B13: mAb_Lm_A32P_HC (antibody, human IgG1, kappa)
heavy: not shown
light: B1 light with A32P
ΔAUC [1]: 192
AUC (BxPC-3) [2]: 256
AUC (MDA-MB-231-KWL) [3]: 64.3

B14: mAb_LC_Hm_Y32E (antibody, human IgG1, kappa)
heavy: not shown
light: B1 light
ΔAUC [1]: 104
AUC (BxPC-3) [2]: 298
AUC (MDA-MB-231-KWL) [3]: 193

B17: mAb_LC_Hm_W106L (antibody, human IgG1, kappa)
heavy: not shown
light: B1 light
ΔAUC [1]: 191
AUC (BxPC-3) [2]: 251
AUC (MDA-MB-231-KWL) [3]: 60.9

B19: mAb_Lm_I93G_HC (antibody, human IgG1, kappa)
heavy: not shown
light: B1 light with I93G
ΔAUC [1]: 85.3
AUC (BxPC-3) [2]: 305
AUC (MDA-MB-231-KWL) [3]: 220

B20: mAb_LC_Hm_Y107I (antibody, human IgG1, kappa)
heavy: not shown
light: B1 light
ΔAUC [1]: 101
AUC (BxPC-3) [2]: 265
AUC (MDA-MB-231-KWL) [3]: 163

B22: mAb_LC_Hm_N31P (antibody, human IgG1, kappa)
heavy: not shown
light: B1 light
ΔAUC [1]: 116
AUC (BxPC-3) [2]: 289
AUC (MDA-MB-231-KWL) [3]: 173

B23: mAb_LC_Hm_G33S (antibody, human IgG1, kappa)
heavy: not shown
light: B1 light
ΔAUC [1]: 144
AUC (BxPC-3) [2]: 281
AUC (MDA-MB-231-KWL) [3]: 137

B26: mAb_Lm_H91K_HC (antibody, human IgG1, kappa)
heavy: not shown
light: B1 light with H91K
ΔAUC [1]: 132
AUC (BxPC-3) [2]: 294
AUC (MDA-MB-231-KWL) [3]: 162

B27: mAb_LC_Hm_Y105S (antibody, human IgG1, kappa)
heavy: not shown
light: B1 light
ΔAUC [1]: 188
AUC (BxPC-3) [2]: 268
AUC (MDA-MB-231-KWL) [3]: 80

B29: αTROP2 (HC:BSM-YTE-S375C) (LC:BSM-Y53D) conjugated to MP-AA-PABC-MMAE (ADC 1) (antibody, human IgG1, kappa, V domains shown)
VH: QVQLLQSGSELKKPGASVKVSCKASGYTFTNYGMNWVRQAPGQGLKWMGWINTYTGEPTYTDDFKGRFSFSLDTSVSQAYLQISSLKAEDTAVYYCARGGFGSSYWYFDVWGQGTLVTVSS
VL: DIQLTQSPSSLSASVGDRVTITCKASQDVSIAVAWYQQKPGKAPKLLIYSASDRYTGVPSRFSGSGSGTDFTLTISSLQPEDFATYYCQQHYITPLTFGPGTKVEIKR
modifications: Cys at position 375 (Eu numbering) conjugated to MP-AA-PABC-MMAE; DAR 1.9
notes: Antibody-drug conjugate; also called αTROP2 (HC:BSM-YTE-S375C-MMAE) (LC:BSM-Y53D)
binding result (Human Trop2 [6]): binds

Now from value to binder:

ΔAUC [1]: 129
AUC (BxPC-3) [2]: 133
AUC (MDA-MB-231-KWL) [3]: 4.22
B3: mAb_Lm_S50L_HC (antibody, human IgG1, kappa)
heavy: not shown
light: B1 light with S50L

ΔAUC [1]: 77.4
AUC (BxPC-3) [2]: 318
AUC (MDA-MB-231-KWL) [3]: 240
B6: mAb_Lm_T94F_HC (antibody, human IgG1, kappa)
heavy: not shown
light: B1 light with T94F

ΔAUC [1]: 148
AUC (BxPC-3) [2]: 165
AUC (MDA-MB-231-KWL) [3]: 16.1
B7: mAb_Lm_Y92E_HC (antibody, human IgG1, kappa)
heavy: not shown
light: B1 light with Y92E

ΔAUC [1]: 169
AUC (BxPC-3) [2]: 309
AUC (MDA-MB-231-KWL) [3]: 140
B12: mAb_Lm_Y53N_HC (antibody, human IgG1, kappa)
heavy: not shown
light: B1 light with Y53N

ΔAUC [1]: 147
AUC (BxPC-3) [2]: 160
AUC (MDA-MB-231-KWL) [3]: 13.1
B15: mAb_Lm_Y92A_HC (antibody, human IgG1, kappa)
heavy: not shown
light: B1 light with Y92A

ΔAUC [1]: 193
AUC (BxPC-3) [2]: 288
AUC (MDA-MB-231-KWL) [3]: 95.1
B16: αTROP2 (HC:Sac) (LC:Sac-Y53D) (antibody, human IgG1, kappa)
heavy: not shown
light: B1 light with Y53D

ΔAUC [1]: 102
AUC (BxPC-3) [2]: 307
AUC (MDA-MB-231-KWL) [3]: 205
B18: mAb_Lm_Y53S_HC (antibody, human IgG1, kappa)
heavy: not shown
light: B1 light with Y53S

Kd (Human Trop2 [4]): 6.9 nM
B21: αTROP2 (HC: Sac-S375C) (LC: Sac-Y53D) (antibody, human IgG1, kappa)
heavy: not shown
light: B1 light with Y53D

ΔAUC [1]: 148
AUC (BxPC-3) [2]: 305
AUC (MDA-MB-231-KWL) [3]: 157
B24: mAb_Lm_S50T_HC (antibody, human IgG1, kappa)
heavy: not shown
light: B1 light with S50T

ΔAUC [1]: 105
AUC (BxPC-3) [2]: 317
AUC (MDA-MB-231-KWL) [3]: 213
B25: mAb_Lm_Y53V_HC (antibody, human IgG1, kappa)
heavy: not shown
light: B1 light with Y53V

Kd (Human Trop2 [5]): 1.1 nM
B28: αTROP2 Fab (Fab, V domains shown)
VH: B29 VH with L5Q, R38K, S69A, Q78T, E89D, Y95F, T115S
VL: DIQLTQSPSSLSASVGDRVSITCKASQDVSIAVAWYQQKPGKAPKLLIYSASYRYTGVPDRFSGSGSGTDFTLTISSLQPEDFAVYYCQQHYITPLTFGAGTKVEIK
notes: CH1 and kappa constant parts not specified
